# Test results from patent US20020151463A1.
# Assays:
# [1] = target: HEK-293 clones transfected with hMC1R, hMC3R or hMC5R; assay: radioligand binding with 125I-NDP-α-MSH on transfected HEK-293 clones
# [2] = target: murine MSH receptor (mouse) (UniProt Q01727); assay: competition binding of cold ACTH against 125I-ACTH1-39 on Cloudman M-3 melanoma cells
# [3] = target: rat MC3-R (rat) (UniProt P32244); assay: cell-based or functional assay
# Chain of rat MC3-R (rat) (P32244 whole entry): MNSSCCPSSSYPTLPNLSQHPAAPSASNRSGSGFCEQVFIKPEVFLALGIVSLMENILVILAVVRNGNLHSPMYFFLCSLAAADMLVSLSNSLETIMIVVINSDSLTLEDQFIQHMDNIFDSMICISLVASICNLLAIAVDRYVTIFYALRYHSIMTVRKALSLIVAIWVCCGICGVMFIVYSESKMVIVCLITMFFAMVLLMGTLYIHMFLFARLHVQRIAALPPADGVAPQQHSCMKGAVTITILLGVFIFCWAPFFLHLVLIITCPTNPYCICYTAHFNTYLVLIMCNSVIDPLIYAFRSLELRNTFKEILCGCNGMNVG
# Chain of adrenocorticotropic hormone (unlabelled) (peptide) (P01189 138-176): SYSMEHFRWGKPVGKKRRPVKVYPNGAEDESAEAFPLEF
# Chain of murine MSH receptor (mouse) (Q01727 whole entry): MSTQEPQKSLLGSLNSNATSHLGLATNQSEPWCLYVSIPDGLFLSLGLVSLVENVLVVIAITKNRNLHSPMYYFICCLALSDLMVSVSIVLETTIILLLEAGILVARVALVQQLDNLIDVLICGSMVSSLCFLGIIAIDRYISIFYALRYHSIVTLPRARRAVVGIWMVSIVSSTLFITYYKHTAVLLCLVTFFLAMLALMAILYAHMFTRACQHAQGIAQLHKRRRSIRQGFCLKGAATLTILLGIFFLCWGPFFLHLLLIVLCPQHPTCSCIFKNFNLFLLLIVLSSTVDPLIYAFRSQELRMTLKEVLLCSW
substance,measurement,setting,value
"125I-labeled Nle,D-Phe (NDP)-α-MSH (from UniProt P01189 138-150) (peptide)",Ki,[1],0.11 to 0.58 nM
adrenocorticotropic hormone (unlabelled) (peptide),Kd,[2],63 nM
α-melanocyte-stimulating hormone (from UniProt P01189 138-150) (peptide),"EC50 for adenylyl cyclase activation, rat MC3-R in 293 cells, α-MSH alone",[3],4.2 nM
same,"EC50 for adenylyl cyclase activation, rat MC3-R in 293 cells, α-MSH plus 0.7 nM murine agouti",[3],4.1 nM
